From US20200317779A1

Biological target: CD3 on human T cells (H9 cells, ATCC HTB-176) (human)
Experiment: flow cytometry on H9 cells, PE anti-human IgG alone (no primary antibody), negative control

Sequence of CD3 on human T cells (H9 cells, ATCC HTB-176) (human) (P07766 23-207, chain 1 of 3): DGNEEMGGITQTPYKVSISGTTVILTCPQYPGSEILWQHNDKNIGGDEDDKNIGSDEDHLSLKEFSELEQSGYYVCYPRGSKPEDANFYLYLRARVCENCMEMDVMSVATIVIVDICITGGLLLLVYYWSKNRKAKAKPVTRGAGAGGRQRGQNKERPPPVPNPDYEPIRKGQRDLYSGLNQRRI
Sequence of CD3 on human T cells (H9 cells, ATCC HTB-176) (human) (P04234 22-171, chain 2 of 3, further chain): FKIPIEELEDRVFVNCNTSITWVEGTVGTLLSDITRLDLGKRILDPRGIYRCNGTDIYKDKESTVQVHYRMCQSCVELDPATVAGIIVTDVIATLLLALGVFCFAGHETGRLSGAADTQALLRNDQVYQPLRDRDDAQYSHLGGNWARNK
Sequence of CD3 on human T cells (H9 cells, ATCC HTB-176) (human) (P09693 23-182, chain 3 of 3, further chain): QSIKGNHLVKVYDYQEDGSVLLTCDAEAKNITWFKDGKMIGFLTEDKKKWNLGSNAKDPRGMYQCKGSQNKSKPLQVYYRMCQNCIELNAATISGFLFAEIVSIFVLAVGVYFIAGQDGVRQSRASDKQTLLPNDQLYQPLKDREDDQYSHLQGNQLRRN

- Mean : PE-A: 138
Substance: a-HuIgG PE (antibody)
